# What was measured:
# NaPi2b expressing tumors = assay: Phase 1b study of XMT-1536: tumor response per RECIST version 1.1; assay type: in vivo, human; settings: for decrease in diameter of target lesions: DL4A (20 mg/m^2)
# Description: The study presented herein is an open label, multi-center Phase 1b study of XMT-1536 administered as an intravenous infusion once every three or four weeks. The dose escalation (DES) part of the study will establish the maximum tolerated dose (MTD) or recommended Phase 2 dose (RP2D) for XMT-1536 in patients with a number of tumor types likely to express NaPi2b, with a focus on patients with platinum-resistant ovarian cancer and non-squamous non-small cell lung cancer (NSCLC). […] The RP2D may differ from the MTD and may take into account tolerability, pharmacokinetic and pharmacodynamic measures, and efficacy of XMT-1536 based on RECIST 1.1. After the first cycle, patients may continue to receive XMT-1536 until disease progression provided the drug is well-tolerated and patients continue to derive clinical benefit in the opinion of the Investigator. The DES segment of the study utilized an accelerated titration design. The first 3-week cycle of treatment constitutes the dose limiting toxicity (DLT) evaluation period. For the first two dose levels, a minimum of 1 patient was treated at each dose level. If this patient experiences a treatment-emergent adverse event of Grade 2 or higher, 2 additional patients will be added at this dose level, and the study will subsequently follow a 3+3 design, as described below. […] Starting with Dose Level 3, the study will follow a standard 3+3 design, with 3 patients enrolled initially at each dose level. […] However, in the event of 1 DLT, 3 additional patients will be enrolled at the same dose level. Any dose level with 2 or more DLTs will be considered to exceed the MTD and subsequent patients will be enrolled at lower dose level(s). After the first cycle, patients may continue to receive XMT-1536 until disease progression if the drug is well-tolerated and patients continue to derive clinical benefit in the opinion of the Investigator.
# All adverse events will be graded according to the National Cancer Institute (NCI) Common Terminology Criteria version (CTCAE v4.03). The observation period for DLTs is 56 days, between Day 1 through end of Cycle 2 which includes the pre-dose assessments before receiving the Cycle 3 dose. In general, adverse events Grade ≥3 are DLTs with modifications for the following criteria: neutropenia hematologic toxicities, gastrointestinal toxicities, hepatic toxicities, and electrolyte imbalances. XMT-1536-related toxicity that delays initiation of Cycle 3 by more than 2 weeks, hospitalization to treat an infusion-related reaction, and any toxicity that prompts modification of the dose to be administered in Cycle 3 are also DLTs. Blood sampling will be performed to determine plasma PK parameters of XMT-1536, its release product auristatin F-HPA, and select metabolites. Testing for anti-drug antibodies (ADA) and neutralizing antibodies (nAb) will be performed. Tumor responses will be Investigator-assessed using Response Evaluation Criteria in Solid Tumors (RECIST), version 1.1, at the end of Cycle 2 and every 2 cycles thereafter.
# In both segments of the study assessments with computerized tomography (CT) scans and RECIST version 1.1 criteria are performed at the end of Cycle 2 and at the end of every even-numbered cycle thereafter. Patients are continuously evaluated for adverse events, the use of concomitant medications, and the occurrence of infusion reactions in any cycle. Pharmacokinetic profiles of XMT-1536 and select release products/metabolites and the development of anti-drug antibodies are evaluated. RECIST version 1.1, is used to measure tumor response. The objective response rate (ORR—rate of complete response [CR] and partial response [PR]) and disease control rate (DCR—rate of CR, PR, and stable disease [SD]) will be measured for each cohort. Response duration, progression-free survival (PFS) and overall survival (OS) is estimated.
# The primary analysis of efficacy is performed using both DES and EXP data. […]
# [1] = Plasma PK profile in patients dosed with XMT-1536; assay type: in vivo, human; settings: 30 patients, 3 to 40 mg/m^2, total antibody, conjugated drug, free drug, AF
# Procedure: The PK profile of the active ingredient of XMT-1536, its release product and selected metabolites are determined for each patient by non-compartmental analysis using standard PK software (e.g., Phoenix WinNonlin). PK parameters per patient include time of maximum observed concentration (tmax), maximum concentration (Cmax), and area under the concentration curve for the last measurable concentration (AUC0-last). When the terminal elimination phase is identified, additional parameters such as elimination half-life, clearance, and volume of distribution are determined.
# The plasma PK profile for the analytes (total antibody; conjugated drug (AF-HPA); free drug (AF-HPA) and the drug metabolite auristatin F (AF)) was determined in blood samples from 30 patients (3 mg/m^2, n=1; 6 mg/m^2, n=1; 12 mg/m^2, n=7; 20 mg/m^2, n=15; 30 mg/m^2, n=5; 40 mg/m^2, n=1). […] The PK characteristics is consistent with that reported for other approved antibody-drug conjugates or those currently in clinical development.
# [2] = All NSCLC, N 3, RECIST version 1.1
# [3] = All Ovarian Cancer (OC), N 19, RECIST version 1.1
# [4] = NSCLC ≥ 20 mg/m^2, N 2, RECIST version 1.1
# [5] = OC + NSCLC ≥ 20 mg/m^2, N 18, RECIST version 1.1
# [6] = OC ≥ 20 mg/m^2, N 16, RECIST version 1.1
# [7] = OC ≥ 30 mg/m^2, N 7, RECIST version 1.1
# [8] = ovarian cancer and lung adenocarcinoma, ≥20 mg/m^2 (N=18)
molecule,measurement,setting,value
"XMT-1536: about 10-15 molecules of auristatin F-hydroxypropyl amide conjugated to a cysteine moiety of NaPi2b monoclonal antibody XMT-1535 via a PHF scaffold (conjugate, chains of the INN, looked up, auristatin F-hydroxypropyl amide via PHF scaffold, about 10-15 molecules of auristatin F-hydroxypropyl amide conjugated to a cysteine moiety of NaPi2b monoclonal antibody XMT-1535 via a PHF scaffold) VH: QVQLVQSGAEVVKPGASVKMSCKASGYTFTGYNIHWVKQAPGQGLEWIGAIYPGNGDTSYKQKFRGRATLTADTSTSTVYMELSSLRSEDSAVYYCARGETARATFAYWGQGTLVTVSS VL: DIQMTQSPSSLSASVGDRVTITCSASQDIGNFLNWYQQKPGKTVKVLIYYTSSLYSGVPSRFSGSGSGTDYTLTISSLQPEDFATYYCQQYSKLPLTFGQGTKLELK",DCR (PR + SD),"NaPi2b expressing tumors; All NSCLC, N 3",67%
same,"DCR (PR + SD), patients","NaPi2b expressing tumors; All NSCLC, N 3",2
same,PD,NaPi2b expressing tumors; [2],33%
same,"PD, patients",NaPi2b expressing tumors; [2],1
same,PR,NaPi2b expressing tumors; [2],0 (0%)
same,"PR, patients",NaPi2b expressing tumors; [2],0 (0%)
same,DCR (PR + SD),"NaPi2b expressing tumors; All Ovarian Cancer (OC), N 19",58%
same,"DCR (PR + SD), patients","NaPi2b expressing tumors; All Ovarian Cancer (OC), N 19",11
same,PD,NaPi2b expressing tumors; [3],42%
same,"PD, patients",NaPi2b expressing tumors; [3],8
same,PR,NaPi2b expressing tumors; [3],16%
same,"PR, patients",NaPi2b expressing tumors; [3],3
same,patients who reached partial remission,NaPi2b expressing tumors; DL 4A,one
same,DCR (PR + SD),"NaPi2b expressing tumors; NSCLC ≥ 20 mg/m^2, N 2",100%
same,"DCR (PR + SD), patients","NaPi2b expressing tumors; NSCLC ≥ 20 mg/m^2, N 2",2
same,PD,NaPi2b expressing tumors; [4],0 (0%)
same,"PD, patients",NaPi2b expressing tumors; [4],0 (0%)
same,PR,NaPi2b expressing tumors; [4],0 (0%)
same,"PR, patients",NaPi2b expressing tumors; [4],0 (0%)
same,DCR (PR + SD),"NaPi2b expressing tumors; OC + NSCLC ≥ 20 mg/m^2, N 18",61%
same,"DCR (PR + SD), patients","NaPi2b expressing tumors; OC + NSCLC ≥ 20 mg/m^2, N 18",11
same,PD,NaPi2b expressing tumors; [5],39%
same,"PD, patients",NaPi2b expressing tumors; [5],7
same,PR,NaPi2b expressing tumors; [5],17%
same,"PR, patients",NaPi2b expressing tumors; [5],3
same,DCR (PR + SD),"NaPi2b expressing tumors; OC ≥ 20 mg/m^2, N 16",57%
same,"DCR (PR + SD), patients","NaPi2b expressing tumors; OC ≥ 20 mg/m^2, N 16",9
same,PD,NaPi2b expressing tumors; [6],43%
same,"PD, patients",NaPi2b expressing tumors; [6],7
same,PR,NaPi2b expressing tumors; [6],19%
same,"PR, patients",NaPi2b expressing tumors; [6],3
same,DCR (PR + SD),"NaPi2b expressing tumors; OC ≥ 30 mg/m^2, N 7",71%
same,"DCR (PR + SD), patients","NaPi2b expressing tumors; OC ≥ 30 mg/m^2, N 7",5
same,PD,NaPi2b expressing tumors; [7],28%
same,"PD, patients",NaPi2b expressing tumors; [7],2
same,PR,NaPi2b expressing tumors; [7],28%
same,"PR, patients",NaPi2b expressing tumors; [7],2
same,dose response of best response by RECIST (waterfall plot),NaPi2b expressing tumors; change in tumor size by dose level,there appears to be a dose response
same,anti-tumor activity,NaPi2b expressing tumors; conclusions,early signs of anti-tumor activity
same,objective responses,NaPi2b expressing tumors; doses of 20 mg/m^2 and higher,Objective responses have been observed
same,clinical activity based on objective responses and duration of treatment,NaPi2b expressing tumors; doses of 20 mg/m^2 or higher,clinical activity was observed
same,DCR,NaPi2b expressing tumors; [8],61%
same,ORR,NaPi2b expressing tumors; [8],17%
same,PRs,NaPi2b expressing tumors; [8],17%
same,"PRs, patients",NaPi2b expressing tumors; [8],3
same,SDs,NaPi2b expressing tumors; [8],44%
same,"SDs, patients",NaPi2b expressing tumors; [8],8
same,disease control rate,"NaPi2b expressing tumors; patients treated with at least 12 mg/m^2, every three weeks, RECIST version 1.1",67%
same,decrease in diameter of target lesions,"NaPi2b expressing tumors; person, platinum-resistant high-grade serous ovarian cancer, end of Cycle 2",40%
same,decrease in diameter of target lesions,"NaPi2b expressing tumors; same patient, end of Cycle 3",75%
same,patients who reached nearly partial remission,NaPi2b expressing tumors; starting at DL 5,two
same,patients with stable disease (SD) as best response,"NaPi2b expressing tumors; ten patients with post-treatment restaging scans, as of February 2019",9
same,outcome by dose level (swimmers plot),NaPi2b expressing tumors; time on study by dose level and tumor type,"At lower doses the majority of patients came off study because of progressive disease, but starting at DL4, most patients had stable disease"
same,"exposure with increasing doses, normalized to dose",[1],nearly dose proportional
